This note sets out measurements from paper PMC9820559, “Investigation of the Fuzzy Complex between RSV Nucleoprotein and Phosphoprotein to Optimize an Inhibition Assay by Fluorescence Polarization” (International Journal of Molecular Sciences, 2022).

For assay [1], the target named is T1, RSV N-RNA complex (Human respiratory syncytial virus A, UniProt P03418).
T1 construct: Full-length N was produced by co-expression with the C-terminal domain of RSV P protein in E. coli BL21(DE3); made in house; host or cells: E. coli BL21(DE3), co-transformed with pET-N and pGEX-P(161–241)
The experiment in a line: Fluorescence polarization inhibition of N-RNA binding to fluorescent probes. As to conditions: probe BCN8E 200 nM. From the text:
We next performed inhibition experiments for the F11-(N-RNA) complex by M76 (Figure 4B). FP values decreased with increasing competitor concentration. At saturation, FP nearly reached the value of free F11, showing that the F11 peptide could be nearly completely displaced. Since the same concentration range was used for NNTD and N-RNA, poor solubility of M76 can be ruled out to explain the saturation observed before complete displacement of F11 in the presence NNTD (Figure 3C). This reinforces the hypothesis of a second binding site on NNTD, outside the canonical P-binding site. […]
To probe the potency of M76 as an inhibitor, we carried out competition experiments with the M76 molecule and several BCNn peptides. M76 was able to displace the fluorescent probes from N-RNA, and inhibition curves were obtained (Figure 8E). Since we used different N concentrations to have similar dynamic ranges of FP for the series of fluorescent peptides, we cannot directly compare M76 IC50s. However, Kis may be compared.
(§1) Fluorescence polarization measurements were carried out on a Paradigm Detection Platform (Beckman Coulter, Brea, CA, USA) operating with a microplate reader, a fluorescein detection cartridge (excitation range 485/20 nm, emission range 535/25 nm for both parallel and perpendicular components) and the SpectraMax Pro 6.1 software (Molecular Devices, San Jose, CA, USA). Samples were placed in polystyrene black flat bottom 96-well microplates (Cellstar, Greiner bio-one, Frickenhausen, Germany) with 20 µL final volume in each well. If not stated otherwise, the final concentration of fluorescent ligands was 200 nM. The buffer was either 20 mM MES pH 6.5, salt-free or with 250 mM NaCl, or 20 mM Tris pH 8.0 salt-free or with 100 mM NaCl, supplemented with 0.01% Brij-35. Mixing was done using the corresponding plate reader option. The temperature was set to 20 °C. Data were recorded in top reading mode. Measurements were done in triplicate and after an incubation time of 30 min, if not indicated otherwise. Fluorescence polarization (FP) in mFP units was determined from the parallel (I∥) and perpendicular (I⊥) components of the emitted light according to Equation (4). A grating factor G of 1.2 was determined using 1 nM fluorescein in 1 mM NaOH and assuming a theoretical FP of 27 mFP [48]. Background signal was measured from wells containing only buffer, and the mean value was subtracted from each I∥ and I⊥ component. (4) FP (mP)=1000×(I∥−G∗I⊥)/(I∥+G×I⊥)
To assess inhibition of a complex between a fluorescent probe and N protein by peptides or the M76 molecule, the concentration of N was set to work with an FP range comprised between FPmin and ~80% FPmax. Peptides were added from 1 or 2 mM stock solution in water at neutral pH. M76 was added from 10 or 20 mM stock solutions in ethanol or in DMSO. […] Inhibition data were fitted with Origin 7, and in parallel with the Excel solver module. All data were compatible with an absence of cooperativity. FPmax and FPmin were fitted, and the maximal inhibition %i,max was set to 100%. (11) %i=100×[1−(FP−FPmin)/(FPmax−FPmin)] (12) %i=%i,max×[inhibitor]/[inhibitor]+IC50
Inhibition constants Ki were calculated on the IC50-to-Ki converter for a protein-ligand-inhibitor system (https://bioinfo-abcc.ncifcrf.gov/IC50_Ki_Converter/index.php, accessed on 24 August 2022), assuming a competitive mechanism (Equation (13)). This tool takes into account the free concentrations of protein and ligand. (13) Ki=(IC50−[protein]/2)/([peptide]/Kd+1)
In general terms: Polarisation of emitted light reports the rotation of a fluorescent probe.

Assay [2] concerns the target T1, RSV N-RNA complex. The experiment in a line: biochemical. It counts as binding. The procedure: We carried out FP measurements using the fluorescent F11 peptide and N-RNA complex. […] No salt was added to promote high affinity.
We first measured binding of Fn peptides (200 nM) to N-RNA in Tris buffer by FP (Figure 5A,B). […] We fitted the data with ΔFPmax and Kd as parameters.
We therefore measured fluorescein FP in the presence of N-RNA. […] To test if fluorescein binds to the P-binding site on the N-RNA, we carried out a competition experiment with M76 (Figure 6C).
We first performed FP measurements in salt-free Tris pH 8 buffer (Figure 8A). We measured binding curves using 200 nM of fluorescent peptides.
as §1
We assumed that the measured fluorescence polarization FP is a linear combination of the FP of the fluorescent probe in the absence of N protein (FPmin) and the FP of N-bound fluorescent probe (FPmax), weighted by the molar fraction. The molar fraction x = [P]bound/[P]0 can then be expressed as a ratio of FP differences (Equation (8)). (8) x=(FP−FPmin)/(FPmax−FPmin)=∆FP/∆FPmax
To determine the Kd value of a complex between a fluorescent probe and N protein, a series of samples with constant probe concentration and varying N concentration was measured. FP binding curves were fitted with a single binding site model and a 1:1 stoichiometry.

For assay [3], the target named is T2, RSV N-RNA complex (full-length N protein in ring-shaped complexes with bacterial RNA) (human respiratory syncytial virus, UniProt P03418 1-391).
T2 construct: human RSV nucleoprotein N, full length; concentrations are of N protomer; also called N-RNA rings; source: in lysate for the co-purification; purified (glutathione-Sepharose, thrombin, Superdex 200) as N-RNA complex; copies: 10-11
T2 sequence (looked up): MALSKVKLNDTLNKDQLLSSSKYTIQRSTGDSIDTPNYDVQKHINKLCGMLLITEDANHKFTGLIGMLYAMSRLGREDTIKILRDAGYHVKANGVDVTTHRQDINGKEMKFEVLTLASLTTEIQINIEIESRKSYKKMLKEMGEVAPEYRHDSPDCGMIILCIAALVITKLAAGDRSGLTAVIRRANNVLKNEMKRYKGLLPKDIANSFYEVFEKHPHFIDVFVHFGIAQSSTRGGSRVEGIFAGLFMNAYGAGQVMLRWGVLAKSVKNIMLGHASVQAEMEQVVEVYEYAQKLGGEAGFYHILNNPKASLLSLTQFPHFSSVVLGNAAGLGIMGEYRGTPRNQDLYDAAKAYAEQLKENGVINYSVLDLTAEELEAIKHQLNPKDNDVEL
Nature of the assay: fluorescence polarisation; 200 nM FTU-labelled Fn peptide, N-RNA varied (up to 40 µM N); 20 mM Tris pH 8.0 without salt, 0.01% Brij-35; 20 °C; 30 min incubation; single site model, or with a linear contribution where marked (*). Particulars: both partners purified.

Assay [4] deals with T2, RSV N-RNA complex (full-length N …). Nature of the assay: fluorescence polarisation; competition: unlabeled P peptide varied against 200 nM F11 on 10 µM N-RNA; Tris pH 8 without salt; Hill equation; Ki from the IC50-to-Ki server. As to conditions: both partners purified.
Assay [5] has the same target. The experiment in a line: fluorescence polarisation; 200 nM dicyano BODIPY FL-labelled BCNn peptide, N-RNA varied; 20 mM Tris pH 8.0 with 100 mM NaCl, 0.01% Brij-35; 20 °C; single site model. Particulars: both partners purified.
The target is the same in assay [6]. The experiment in a line: fluorescence polarisation; 200 nM dicyano BODIPY FL-labelled BCNn peptide, N-RNA varied; 20 mM Tris pH 8.0 without salt, 0.01% Brij-35; 20 °C; single site model. Particulars: both partners purified.
For assay [7] the target is unchanged. The experiment in a line: fluorescence polarisation; competition: unlabeled P_(10EE) varied against 200 nM BCN_(10EE) on 1 µM N-RNA; Tris pH 8 buffer; Hill equation; Ki from the IC50-to-Ki server. Particulars: both partners purified.
Where [8] appears, read: BCNn peptides 200 nM, Tris pH 8.0, no salt, single site model.

Ends that are not written are not given here. Peptide text beside a SMILES is read from it. * marks the point of attachment. dicyano BODIPY FL = CC1=CC(C)=[N+]2C1=Cc1ccc(CCC(=O)*)n1[B-]2(C#N)C#N; FITC = O=C1OC2(c3ccc(O)cc3Oc3cc(O)ccc32)c2ccc(NC(=S)*)cc21; X1 = Cc1cc(C)n2c1C=C1C=CC(CCC(=O)*)=[N+]1[B-]2(C#N)C#N

Broadly, the Kd is the concentration at which binding is half-saturated. In general, IC50 refers to the concentration needed to halve the response being measured. The term Ki denotes the equilibrium dissociation constant of an inhibitor or competing ligand from its target.

As for `Cc1cc(C)n2c1C=C1C=CC(CCC(=O)N[C@@H](CC(N)=O)C(=O)N[C@@H](CC(=O)O)C(=O)N[C@@H](CC(C)C)C(=O)N[C@@H](CCC(=O)O)C(=O)N[C@@H](CC(C)C)C(=O)N[C@@H](CCC(=O)O)C(=O)N[C@@H](CC(=O)O)C(=O)N[C@@H](Cc3ccccc3)C(=O)O)=[N+]1[B-]2(C#N)C#N` [BCN8E] (X1-NDLELEDF-OH), the “Fitted FPmax” value on RSV N-RNA complex [1] (inhibitor M76, [N-RNA] 2 µM) was found to be 166 mFP; at RSV N-RNA complex [1] (inhibitor M76, [N-RNA] 5 µM), 196 mFP. Besides, the “decrease of affinity in salty buffer versus salt-free buffer” value on RSV N-RNA complex [2] (100 mM NaCl vs no salt, Tris pH 8) is on record as 5 fold. Moreover, the Kd on RSV N-RNA complex [2] (setting [8]) was determined as 1400 nM. The ΔFPmax on RSV N-RNA complex [2] (setting [8]) was 298 ± 5 mFP; at RSV N-RNA complex [2] (BCNn peptides 200 nM, Tris pH 8.0, with salt (100 mM NaCl), (*) saturation not reached), 284 ± 15 (*) mFP.

B1: F_(11SE) (FTU-labelled RSV P 11-mer, Ser237Glu) (peptide)
peptide: {FITC}-DSDNDLELEDF
notes: C-terminal 11 residues of RSV phosphoprotein P with a phosphomimetic glutamate at 237; source: synthetic peptide (Fmoc/tBu solid phase), FITC coupled in solution, HPLC purified
Consider B1, for which, in assay [3], the Kd worked out at 870 ± 260 nM.

B2: F_(11EE) (FTU-labelled RSV P 11-mer, Ser232Glu/Ser237Glu) (peptide)
peptide: {FITC}-DEDNDLELEDF
notes: C-terminal 11 residues of RSV phosphoprotein P with phosphomimetic glutamates at 232 and 237; source: synthetic peptide (Fmoc/tBu solid phase), FITC coupled in solution, HPLC purified
For the molecule B2, in assay [3], the Kd amounted to 380 ± 120 nM.

B3: P11 (unlabeled RSV P C-terminal 11-mer) (peptide)
peptide: DSDNDLSLEDF
notes: unlabeled peptide from which F11 was made; C-terminal 11 residues of RSV phosphoprotein P; also called P_(11SS); source: bought: GeneCust (synthetic peptide, >95% purity)
Turning to B3, in assay [4], the IC50 amounted to 86 ± 7 µM and the Ki was found to be 34 µM.

B4: P_(11EE) (unlabeled RSV P 11-mer, Ser232Glu/Ser237Glu) (peptide)
peptide: DEDNDLELEDF
notes: unlabeled peptide from which F_(11EE) was made; C-terminal 11 residues of RSV phosphoprotein P; source: synthetic peptide (Fmoc/tBu solid phase, RP-HPLC purified)
For B4, in assay [4], the IC50 turned out to be 22 ± 4 µM and the Ki turned out to be 6 µM.

B5: BCN_(11EE) (dicyano BODIPY FL-labelled RSV P 11-mer, Ser232Glu/Ser237Glu) (peptide)
peptide: {dicyano BODIPY FL}-DEDNDLELEDF
notes: C-terminal 11 residues of RSV phosphoprotein P with phosphomimetic glutamates at 232 and 237; source: synthetic peptide (Fmoc/tBu solid phase, dicyano BODIPY FL coupled on resin, RP-HPLC purified)
Regarding B5, the Kd in assay [5] stood at 260 ± 40 nM; in assay [6], 280 ± 70 nM.

B6: P_(10EE) (unlabeled RSV P 10-mer, Ser232Glu/Ser237Glu) (peptide)
peptide: EDNDLELEDF
notes: unlabeled equivalent of BCN_(10EE), which was made from P_(10EE) on resin; C-terminal 10 residues of RSV phosphoprotein P; source: synthetic peptide
In assay [7], B6 registered an IC50 of 21 ± 4 µM and a Ki of 2900 nM.
